From patent US5792634

Molecular target: RNA polymerase II purified from rat liver (rat)

rate of RNA chain elongation, runoff transcription from the AdML promoter: > 5 fold
Substance: RNA polymerase transcription factor SIII (Elongin), purified from rat liver
